Consider 41 sequences from the nanobody polyreactivity screen of Harvey et al. (2022).

This series can be described thus: yeast display, Sf9 membrane polyspecificity reagent, FACS + sequencing; frameworks hold sequencing errors. The essentials: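 Using colony PCR, genes from sorted yeast display clones were amplified, then sequenced on MiSeq at 2 × 250 and filtered by CDR length. The clones had been stained with 10% biotinylated, detergent-solubilized Sf9 membrane reagent for 1 hour at 4 °C and sorted by FACS into low and high (top ~1%) gates on anti-HA and streptavidin fluorescence. Polyreactivity labels come from the gate of origin.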
“QVQLVESGGGLVQAGGSLRLSCAASGSTFSAYAMGWYRQAPGKERELVAAISKRGGSTYYADSVKGRFTISRDNAKNTVYLQMNSLKPEDTAVYYCNKESLYREFDYWGQGTQVTVSS”: the “polyreactivity (PSR sort gate)” value was “low polyreactivity”.

Consider “QVQLVESGGGLVQAGGSLRLSCAASGRIFGYYTMGSYRQAPGKEMELVATINWSGGSTYYADSVKGRFTISRDNAKNTVYLQMNSLKPEDTAVYYCADRPALWGRYRGYDYWGQGTQVTVSS”, for which the “polyreactivity (PSR sort gate)” value is “high polyreactivity”. The same measure for “QVQLVESGGGLVQAGGSLRLSCAASGITFANYAVGWYRQAPGKERELVAAISTSGGSTYYADSVKGRFTISRDNAKNTVDLQMNSLKPEDTAVYYCAARPYPWANFGYWGQGTQVTVSS”: “high polyreactivity”.

On to “QVQLVESGGGLDQAGGRLRLSCAASGRTFNVNVMGWYRQSPGKERELVAAIRYTGGSTYADSVKGRFTISRDNAKNTVYLQMNSLKPEDTAVDYCNADTFFPFDHGMDYWGQGTQVTVSS”, for which the “polyreactivity (PSR sort gate)” value is “low polyreactivity”.

“QDQLLESGGGVFQAGGSLRLSCAASGVIFGSYALGWYRPAPGKERELVADITQSGGRTRYADSVKGRFTISRDNAKNTVYLQMNSLKPEDSAVYYCNAQDVDSGDDYDYWGQGTQVTLSS”: the “polyreactivity (PSR sort gate)” value was “low polyreactivity”. Regarding “QVQLVESGGGLVQAGGSLRLSCAASGRTFPVNAMGWYRQAPGKERELVAAITTNGGRTYYADSVKGRFTISRDNAKNTVYLQMNSLKPEDTAVYYCATRAYNDKRYGYWGQGTQVTVSS”, the “polyreactivity (PSR sort gate)” value is on record as “high polyreactivity”. As for “QVQLVESGGRLVQAGGTLRLSCAASGSICGFNAMGWYRQAPGKERELVAAINNGGSKNYADSVKGRFTISRDNAKITVYLQMKILKQEDTEVYYCAARLNYIRRGYWGQGTQVTVSS”, the “polyreactivity (PSR sort gate)” value is given as “high polyreactivity”. Regarding “QVQLVESGGGLVQAGGSLRLSCAASGITFEGYAMGWYRQAPGKERELVAAITGSGSTTYYADSVKGRFTISRDNAKNTVYLQMNSLKPEDTAVYYCAADVSYKLYWGQGTQVTVSS”, the “polyreactivity (PSR sort gate)” value is “low polyreactivity”. For the sequence “QVQHEESGGGLVQAGGSLRLSCAASGSIIAYNAMGWYRQAPGKERELVAAITDSGGSTFDADSVKGRFTFSRDYGMITVYLQMNSLIPEDTAVYYCATSGDRLVWGQGTQVTVSS”, the “polyreactivity (PSR sort gate)” value was “low polyreactivity”. Turning to “QVQLVESGGGLVQAGGSLRLSCAASGFTFNRYAMGWYRQAPGKERELVAAISRGGGSTYYADSVKGRFTISRDNAKNTVYLQMNSLKPEDTAVYYCAADTRVRTCRYGFWGQGTQVNVSS”, the “polyreactivity (PSR sort gate)” value is reported as “high polyreactivity”. As to “QVQLVESRGGLVQAGGSLRLSCPDSGITLSEYAMGWYRQAPGKERELVATISWRGGTTYYADSVKGLFTISRDNAKNTVSLQMIILNPEDTAVYYCAASWWSFGCYTWKAYDYWGQGTQVTVSS”, the “polyreactivity (PSR sort gate)” value is given as “high polyreactivity”. As for “QVQLGESGGGLVQAGGSLRLSCAASGNIFYANAMGWSRQAPGTERELLAAISGSGGSTYADSVKGRFTISRDNAKNTVYLQMNSLKPVDTAVYYCNASVLDAIFYKSVGYDYWGQGTQVTVSS”, the “polyreactivity (PSR sort gate)” value is on record as “low polyreactivity”.

In the case of “QVQLVESGGGLVQAGGSLRLSCAASGSTFVNYVMGWYRQAPGKERELVAAISRRGTSTRYADSVKGRFTISRDNAKNTVYFQMNSLKPEDTAVYFCAATRYVGVTGYGYWGLGTQVTVSS”, the “polyreactivity (PSR sort gate)” value was “high polyreactivity”. Consider “QVQLVESGGGLDQAGGSLRLSCAASGFTFGSNAMGWYRQAPGKERELVASITTRGGSTYYADSVKGRFTISRDNANNTVYLQMNSLKPEDTAVYYCAARARYPNWTYYYWGQGTQVTVSS”, for which the “polyreactivity (PSR sort gate)” value is “high polyreactivity”. The entry for “QVQLVESGGGLVQAGGSLRLSCAASGYTFSRNAMGWYRQAPGKERELVADINYSGGITYYADSVKGRFTISRDNAKNTVYLQMNSLKPEDTAVYYCAAVATNVPTHGRPSRRAYDYWGQGTQVTVSS” is “low polyreactivity”; for “QVQLGESGGGLVQAGGSLRLSCAASGFIFSYNAMGWYRQAPWKERELVAAISWRGGSTYYADSVKGRFTISRDNAKNTVYLQMNSLKPEDTAVYYCAAYLWRLWPSGYYYWGQGTQVTVSS” it is “high polyreactivity”; for “QLQLVESGGGLVQAGGSLRLSCAASGGTFYTNAMGRYRQAPGKEREFVAAISWIGGSTRYADSVKGRFTISRDNAKNTVYLQMNSLKPEDTEVYFCAAEDVFWVGEYYYEMDYWGQGTQVTVSS” it is “high polyreactivity”. Take “QDLLVESGGGLVQAGGSLGLSCAASGRIFSIYAMGWYRLAPGKERELVAAITRGGRTNYADSVKGRFTISRDNAKNTDYLQMISLKPEDTAVYYCADRLIDGVVKPYDYWGQGTQVTVSS”: the “polyreactivity (PSR sort gate)” value was “low polyreactivity”. Consider “QDQLGESGGGLVQAGGSLRLSCAASGYIFGTYAMGWYRQATGKERELVAAISVGGGSTYYADSVKGRFTISRDNAKHTVYLQMNSLKPEDTAVYYCAAVQLYQKHQITYVAHEYWGQGTQVTVSS”, for which the “polyreactivity (PSR sort gate)” value is “low polyreactivity”. Regarding “QVQLVESGGGLVHAGGSLRLSCAASGSTFSWYVMGWYRQAPGKERELVAAISYRGGRTYYADSVKGRFTISRDNAKNTVYLQMNSLKPEDTAVYYCAARGVVDAGRTNRPYDYWGQGTQVTVSS”, the “polyreactivity (PSR sort gate)” value was “low polyreactivity”. With “QVQLVESGGGLVQAGGSLRLSCAASGRTFWFYGMGWYRQAPGKEREFVARISASGGSTYYADSVKGRYTISRDNAKNTVYLQMNSLKPEDTAVYYCARDTPWRYYYWGQGTQVTVSS”, the “polyreactivity (PSR sort gate)” value is “high polyreactivity”.

On to “QVQLEESGGGLVQAGGSLRLSCAASGRIFYPYAMGWYRQAPGKERELVAAISRSGGSTYYADSVKGRFTISRDNAKNTVYLQMNSLKPEDTAVYYCATGFYRAISHHGYDYWGQGTQVTVSS”, for which the “polyreactivity (PSR sort gate)” value is reported as “low polyreactivity”. The entry for “QVQLVESGGGLVQAGGILRLSCAASGSIFYHYAMGWYRQAPGKDREFVAAITRRGTSTYYADSVKGRFTISRDIAKKTVYLQMNSLKPEDTAVYYWAARYGPNMDYWGQGTQVTVSS” is “high polyreactivity”; for “QDQLVETGGGLVQAGGSLRLSCAASGSTFAYYTMGWYRPAPGKERELVAAISSGGITYYAYSVKGRFTISRDNAKNTVYLQMNSLKPEDTAVYYCAAYRTHGPPRAIRFDYWGQGTQVTVSS” it is “high polyreactivity”; for “QVQLVESGGGLVQAGGSLRLSCAASGFTFDSYAMGWYRQAPGKERELVASISSSGSTNYADSVKGRFTISRDNAKNTVYLQMNSLKPEDTAVYYCAAESRYPFIYEYWGQGTQVTVSS” it is “low polyreactivity”. With “QVQLVESGGGLVQAGGSLRLSCAASGRTFSVYDMGWYRQAPGKERELVARIRSGGSTYYADSVKGRFTISRDNAKNTVYLQMNSLKPEDTAVYYCAADGFASRWYAYYYWGQGTQVTVSS”, the “polyreactivity (PSR sort gate)” value is given as “high polyreactivity”. With “QDQLVESGGGLVQAGCSLRLSCAASGRTFTYYAMGWYRQAPGKERELVAALSKRGGTTYYADSVKVRFSMSRDNAKNTDYLKMNSLKAVDTAVYYCATEGNLRTAGYAYDHYYWGQGTQVTVSS”, the “polyreactivity (PSR sort gate)” value is listed as “high polyreactivity”. As for “QVQLVESGGGLVQAGGSLRLSCAASGFTFRIYAMGWYRQAPGKERELVAAISWSGGSTYYADSVKGRFTISRDNAKNTVYLQMNSLKPEDTAVYYCATDSHRSQRHYAYDGDYWGQGTQVTVSS”, the “polyreactivity (PSR sort gate)” value is “high polyreactivity”. As to “QVQLVESGGGLVQAGGSLRLSCAASGRTFYRNAMGWYRQAPGKERELVAAITWSGVSTYYADSVKGRFTISRDNAKNTVYLQMNSLKPEDTAVYYCARGRVLRNGHYFQLRNYDYWGQGTQVTVSS”, the “polyreactivity (PSR sort gate)” value is given as “high polyreactivity”.

Regarding “QVQLVESGGGLVQAGGSLRLSCAASGLTFTSYAMGWYRQAPGKERELVAAITSGGSTYFADSVKGRFTISRDNAKNTVYLQMNSLKPEDTAVYYCNVTVYTRWYRSHSFWSTFRMDYWGQGTQVTVSS”, the “polyreactivity (PSR sort gate)” value is on record as “low polyreactivity”. With “QVQLVESGGGLVQAGGSLLLSCAASGFTFRYYAMGWYRQAPGKERELVAAITGSGTRTYYADSVKGRFTISRDYGKNTVYLQMNSLKPEDPAVYYCNAPRQPRWFDYWGQGTQVTVSS”, the “polyreactivity (PSR sort gate)” value is reported as “high polyreactivity”. The entry for “QVQLVESGGGLVQAGGSLRLSCAASGNTLDAYTMGWYRQAPGKERELVAAISRGGTRTYYADSVKGRFTISRDNAKNTVYLQMNSLKPEDTAVYYCNKVRDYSYDSWGQCTQVTVSS” is “high polyreactivity”; for “QVQLVESGGGLVQAGGSLRLSCAASGLTFDAYAMGWYRHAPRKERELVAAISWSGGSTYYADSVKGRFTISRDNAKNTVYLQMNSLKPEDTAVYYSNARYAQFRFWGQGTQVTVSS” it is “high polyreactivity”; for “QVQLVDSGGGLVQAGGRLRISSAASGRISQGNAMGWYRQAPGKERELVAGISRSGGSTYYADSVKGRFTISRDNAKKTVYLQMNSLKPEDTAVYYCAARYYWRGYYWGQGTQVTVSS” it is “high polyreactivity”. The same measure for “QVQLVESGGGLVQAGGSLRLSCAASGLIFGTYAMGWYREARGIERELVAAITSGGRTYYADSVKGRFTISRDNAKNTVYLQLNSLKPEATAVYYCAAVLSQWGAVFLYVLSTGLDYWGQGTQVTVSS”: “low polyreactivity”. In the case of “QVQLVESVGGLVQAGGSLRLSCAASGSIFAPYAMGWYRQAPGKERELVAAITWSGDSTYYADSVKGRFTISRDNAKNTVYLQMNSLKPEDTAVYYCATEEVYGQGNYWGQGTQVTVSS”, the “polyreactivity (PSR sort gate)” value is “low polyreactivity”. Consider “QVHLVESGGGLVQAGGSLRLSCAASGSIFGDNTMGWYRQAPGKERELVAAISQSSGTSTYYADSVKGRFTISRDNAKNTVYFQMNSLKPEDTAVYYCAKDPHGSDFGYWGQVTQVTVSS”, for which the “polyreactivity (PSR sort gate)” value was “low polyreactivity”. Consider “QVQLVESGGGLVQAGGSLRLSCAASGRTFYSYAMGWYRQAPGKERELVAAISKRGTSTYYADSVKGRFTISRDNAKNTVYLQMNSLKPEDTAVYYCAAAYRGREVEYNCWGQGTQVTVSS”, for which the “polyreactivity (PSR sort gate)” value was “high polyreactivity”. For the sequence “QVQLVESGGGLVQAGGSLRLSCAASGSTFSYNAMGWYRQAPGKERELVAAISRGDVSTYYADSVKGRFTISRDNAKNTVYLQMNSLKPEDTAVYYCADYWYGSQYKWRYDYWGQGTQVTVSS”, the “polyreactivity (PSR sort gate)” value is listed as “low polyreactivity”. As to “QVQLVESGGGLVQAGGSLRLSCAASGSIFDYYTMGWYRQAPGKEREFVAGISDSGGSTNYADSVKGRFTISRDNAKNTVYLQMNSLKPEDTAVYYCNAEYVGWFYKYDYWGQGTQVTVSS”, the “polyreactivity (PSR sort gate)” value is reported as “high polyreactivity”. Consider “QVQLVESGGGLVQAGGSLRLSCAASGITFEGYAMGGYRQAPGKERELVAAIRSSGTSTYYADSVKGRFTISRDNAKNTVYLQMNSLKPEDTAVYYCNRARSSSLYDYWGQGTQVTVSS”, for which the “polyreactivity (PSR sort gate)” value was “low polyreactivity”.
